Assay results reported in US20230183353A1.

Assays:
[1] = biological target: recombinant human FcγRIIIa (Phe) (human) (UniProt P08637); test: SPR (ProteOn), receptor immobilised on GLC chip by amine coupling, pH 7.4, 25 C
[2] = biological target: recombinant human FcγRIIIa (Val) (human) (UniProt P08637); test: as above
Chain of recombinant human FcγRIIIa (Val) (human) (P08637 17-208 F176V limits assumed): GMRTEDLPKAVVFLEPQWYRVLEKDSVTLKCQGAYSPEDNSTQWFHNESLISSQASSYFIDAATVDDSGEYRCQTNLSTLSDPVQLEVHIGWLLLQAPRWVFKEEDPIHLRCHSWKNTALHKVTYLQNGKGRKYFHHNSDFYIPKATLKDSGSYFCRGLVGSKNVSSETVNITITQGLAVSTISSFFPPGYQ

Chain of recombinant human FcγRIIIa (Phe) (human) (P08637 17-208 limits assumed): as the sequence (P08637 17-208 F176V limits assumed) above, with V160F counted along it

Control molecule representing human IgG1 control (lacking substitutions of the present invention)
Kd [1]: 2200 nM | Kd [2]: 1280 nM
